The results in this text go back to the DeepSol protein solubility set.

The data set in a line: soluble on expression in E. coli; label from the status in PepcDB or PDB records.
For “ARVLVVGDVMLDRYWFGEVDRISPEAPVPVVRVARREDRLGGAANVARNVAALGAQVTLIGVVGADEVGLRIERMAAEEGVRTDLVSDTEHPTTLKMRVLGRQQQLLRVDFEQHPEPAALDGISAAVARQLAQHDIVVLSDYAKGVLDRVESIIAAAVGHSLPVLVDPKGDHYERYRGATLVTPNRAEMREAVGRWKTEDELAERAQRLRLDLDLEALLVTRSEQGMTLFTDAGRDHADAAAHEVYDVSGAGDTVLATLAVMRAVGLSWGDAMRWANRAGGIVVGKLGTSVVTAAEL”, the “soluble on expression in E. coli” value is listed as “not soluble”.

With “MAHHHHHHMVLLKILKKIKDNKRNLRILILGLDNAGKTTIIKRLLGEDIYSVSPTFGFNIETLEFGNNILNIWDIGGQKSIRHFWKNYYEDVDGIIFVVDSTDLFRLQLCSFELKQILKEERLYGSTLLILSNKVDIDKSLTINQIVEILKLNEMNMDRHWCINECSAFSGKGLLKSFMWLIDDITDRIDS”, the “soluble on expression in E. coli” value was “not soluble”.

As for “MQSIGQVLTKASERLEERLAAVLAQYTPAYFRERIPELNELDATDEMIQKAIIQLMDRAKQIEECRGCTGFANCRRPPGQEGMVMHLTVENGHISSLHSMCDQFHAYHQEQRWQRLLALSGKAANDKNFTFDNFPDAQKKRHRKLCGYIYQFAQQFEPGGSDKGVYIYGPPGTGKTHLLLAMVNRLEERRVPVIFIRTDAIFRRMRGMLSAKESLDSLIEAYCTTPVLVIDEFAQEAGTEFTIDVMFEVVNARFANSLPTFATSNYAPDQVYEKAMRKHRLEEKVEAIRSRLNQMMKHAFMDGEDGRKKDRETF”, the “soluble on expression in E. coli” value is “not soluble”.

As for “MKKVVTVCPYCASGCKINLVVDNGKIVRAEAAQGKTNQGTLCLKGYYGWDFINDTQILTPRLKTPMIRRQRGGKLEPVSWDEALNYVAERLSAIKEKYGPDAIQTTGSSRGTGNETNYVMQKFARAVIGTNNVDCCARVCHGPSVAGLHQSVGNGAMSNAINEIDNTDLVFVFGYNPADSHPIVANHVINAKRNGAKIIVCDPRKIETARIADMHIALKNGSNIALLNAMGHVIIEENLYDKAFVASRTEGFEEYRKIVEGYTPESVEDITGVSASEIRQAARMYAQAKSAAILWGMGVTQFYQGVETVRSLTSLAMLTGNLGKPHAGVNPVRGQNNVQGACDMGALPDTYPGYQYVKDPANREKFAKAWGVESLPAHTGYRISELPHRAAHGEVRAAYIMGEDPLQTDAELSAVRKAFEDLELVIVQDIFMTKTASAADVILPSTSWGEHEGVFTAADRGFQRFFKAVEPKWDLKTDWQIISEIATRMGYPMHYNNTQEIWDELRHLCPDFYGATYEKMGELGFIQWPCRDTSDADQGTSYLFKEKFDTPNGLAQFFTCDWVAPIDKLTDEYPMVLSTVREVGHYSCRSMTGNCAALAALADEPGYAQINTEDAKRLGIEDEALVWVHSRKGKIITRAQVSDRPNKGAIYMTYQWWIGACNELVTENLSPITKTPEYKYCAVRVEPIADQRAAEQYVIDEYNKLKTRLREAALA”, the “soluble on expression in E. coli” value is listed as “soluble”.

“MAPALVQRRKKVAMIGSGMIGGTMGYLCALRELADVVLYDVVKGMPEGKALDLSHVTSVVDTNVSVRAEYSYEAALTGADCVIVTAGLTKVPGKPDSEWSRNDLLPFNSKIIREIGQNIKKYCPKTFIIVVTNPLDCMVKVMCEASGVPTNMICGMACMLDSGRFRRYVADALSVSPRDVQATVIGTHGDCMVPLVRYITVNGYPIQKFIKDGVVTEKQLEEIAEHTKVSGGEIVRFLGQGSAYYAPAASAVAMATSFLNDEKRVIPCSVYCNGEYGLKDMFIGLPAVIGGAGIERVIELELNEEEKKQFQKSVDDVMALNKAVAALQAPG”: the “soluble on expression in E. coli” value was “soluble”.

Consider “SNAMHSDALSWGHGPRLFEVFLEPTCPFSVKAFFKLDDLLAQAGEDNVTVRIRLQSQPWHMFSGVIVRCILAAATLEGGKESAKAVMTAVASHREEFEFEHHAGGPNLDATPNDIIARIERYSGLALAEAFANPELEHAVKWHTKYARQNGIHVSPTFMINGLVQPGMSSGDPVSKWVSDIG”, for which the “soluble on expression in E. coli” value is listed as “soluble”.

With “MGSDKIHHHHHHMELPVVVQQALGDNAPGVSFRSVSQIDTGHLLRMVLLSDDQGNLQAICRRNDMLDLEALNKRLGRDLRMMQRREQVRVRQKAGLQELPALPSLTGWPTVVDRRVDELEAVALELGEQDLGLMMPAEDFRQLTAKAARHDFAVDTANISVNLDNHAADRDQLHSAIKRFTGLRIQQRLEDTLELPPLPETAQRIIHLRVNPNAVMGDLVDVVESDPSLAAQVVSWASSSFYAAAGRVHSVHDAVSRVLGFDLVMNLAMGLALGRALKHPQDHPDGYVDYWQQAIWQAQSAGILASMMPRGQRPLFGLAYLAGLLHNFGHLVLAQVFPPHFKLVCRSLEVSPHIDSSVIEHYLLGITREQIAAQLMENWGMPDEVTLAIRYQKNPAYDGPHNVYARLLWLGRQLLTERGVALGAGESATQAVYDELGLDRELVQEQFDELVRRKDSIMAMAGMMSQGG”, the “soluble on expression in E. coli” value is reported as “not soluble”.

Consider “MSLMIVYKGEKMQFIRVNTLKINPEVLKKRLENKGVVLEKTFLDYAFEVKKSPFSIGSTPEYLFGYYMPQSISSMIPPIVLNPREDDFILDMCAAPGGKTTHLAQLMKNKGTIVAVEISKTRTKALKSNINRMGVLNTIIINADMRKYKDYLLKNEIFFDKILLDAPCSGNIIKDKNRNVSEEDIKYCSLRQKELIDIGIDLLKKDGELVYSTCSMEVEENEEVIKYILQKRNDVELIIIKANEFKGINIKEGYIKGTLRVFPPNEPFFIAKLREGGSHHHHHH”, for which the “soluble on expression in E. coli” value is “soluble”.

On to “MPLRPQRPCRAQGCRSLHRNANGYCDGHADLAAEQAKAWATRKGSGRGGRPWRRKRERILKRDQYLCRCDDCAQLGRIREAHEVDHIVALAHGGTDDDDNLRAINRDCHKAKTQRESKTIKKLEHHHHHH”, for which the “soluble on expression in E. coli” value is reported as “not soluble”.

Take “GDDYTQQQGEVEKQPNIDELKKRMEQSRLNKLRGDLDQLIESDPKLRALRPHLKIDLVQEGLRIQIIDSQNRPMFKTGSAEVEPYMRDILRAIAPVLNGIPNRISLAGHTDDFPYANGEKGYSNWELSADRANASRRELVAGGLDNGKVLRVVGMAATMRLSDRGPDDAINRRISLLVLNKQAEQAILHENAESQNEPVSVLQQHHHHHH”: the “soluble on expression in E. coli” value is recorded as “soluble”.

“MSTQKRAIAKTDMLKFTETSQPIGQKKYVELSKDIFIFSYLCGGINFTDIANLTQENIVNGRLHYIRQKTGKLIKIGIPQEAMQIIKKYTDESNGYLFPILNVKVHKTALQKQNRIHKIRGKVNDILKTLGKRLGIEANITTYVARHSFASVLKKSGVNIALISEALGHSDLATTQIYLDSFDNEQVDEAMKNLLEHHHHHH”: the “soluble on expression in E. coli” value is reported as “not soluble”.

Consider “MSDSDLKEIEKNAENIKLEPAEDEVNEEDQNEITIPELPEGRVLELRLLSNWGDSHYIGLNSVEIFTSTGERAVIDKIATNVTEYTGSLESLIVQRVHCKDAEKMWCAKTTEEKIVLTLELKETCKLALIRFWNYNASRVHAQIGVRYLEMYLDGVGIFRGELECAFSADSEFTPVMGETVLFTTSDNILELIALHDVCLISLPEEPISNSSIEMLKADHLTPYRPSTCEAKDAPSTPVTIVPPPIFRQTGTAYKHDVKTLHIELLSNWGMDGLIGLTGLELVDEHSQLIDESQYTVTTSDGNSDLSKKLFNGRNLTRDPHDMWLVDFDSKNFTTISITFHDNVALKAISVWNYNASFELSYAGVKAAKIYINGKLIKNVLLRKATGFVYFDYVQDVVLDPNNTERDFVPKGISQSIGGFVFQIRLLSTWGDEFYIGLNGIELYNRKGELMKIREHNLAAFPESVNILPNIKNDLRTSNNLITQPNDTDIARNMWLTALLPNRCARVFFVFDVQTYISKIVIYNYRKTPERGVRHISVTVDDLIIFSGEIPSSTATLTGNLEINLMDI”, for which the “soluble on expression in E. coli” value is listed as “not soluble”.

In the case of “MAHHHHHHMSSLDSVREDILDVFHIFDEDGSGSITMQELKRAIYTITGIRISRIDLSILVRTCKEEMLKESARKSEAGANVAGKAGEKLWTPEPESEVNTVDPQLFAAVVLKTLNRRTQEQELLFTFRLLEDKDYPGFITKDSLKRASADIDEHLTDQEVNEMFDKLVTGVSAAAIDFVTFSSLMETLRKSI”, the “soluble on expression in E. coli” value was “soluble”.

As to “MNIQAIDTRHGTANQHSFSNGNCLPYTGVPFGMNFYAPQTTDQKGSWWFHPEDRTFQGYRVTHQPSPWMGDFSHLLMTPVSGSLSELSLFHAQSSYRPEESLFSPVEINLTQLRYQITSQLIPSMYGGILTIDYQQKDNHLLLTLPGRYQVKQLDDHQVAVKVINYSGCEDPDFSFYFVLHFEQPLTKWFAPSSGLEHHHHHH”, the “soluble on expression in E. coli” value was “not soluble”.

In the case of “AHHHHHHGSPRLIKDRVPTPERSVGERVRDFGEVNLGYSWELALREAERCLQCPVEYAPCIKGCPVHINIPGFIKALRENRDNPSKAVREALRIIWRDNTLPAITGRVCPQEEQCEGACVVGKVGDPINIGKLERFVADYAREHGIDDELLLEEIKGIKRNGKKVAIIGAGPAGLTCAADLAKMGYEVTIYEALHQPGGVLIYGIPEFRLPKEIVKKELENLRRLGVKIETNVLVGKTITFEELREEYDAIFIGTGAGTPRIYPWPGVNLNGIYSANEFLTRINLMKAYKFPEYDTPIKVGKRVAVIGGGNTAMDAARSALRLGAEVWILYRRTRKEMTAREEEIKHAEEEGVKFMFLVTPKRFIGDENGNLKAIELEKMKLGEPDESGRRRPIPTGETFIMEFDTAIIAIGQTPNKTFLETVPGLKVDEWGRIVVDENLMTSIPGVFAGGDAIRGEATVILAMGDGRKAAKAIHQYLSKEK”, the “soluble on expression in E. coli” value is on record as “soluble”.

For the sequence “MGSDKIHHHHHHMSESAIADFVSSFIPDTATHVEPVRGRVVMSKRRIVLAADDEKTTIPLNGVFDVQHETAPGDLARFFEDTVTIAYEHDEDRHVAVIEGGGSTVDRFVTLVFKALVHGTTVYAKHPARRGGRITDQPFEKGNLALSPGDLTITGDADTTIDLSTVSHFERVDREVNGSNKQLLSVRHMGSTGPITTELALSSGRKMNLLGRYIRLQYTHLKQELADVTLTSEEIEALVAIYSSGPNASLAAVLGVDASRVTMLLNDLIEKELVTDDDGIALTSLGRAAVSEHIEDVNL”, the “soluble on expression in E. coli” value is “not soluble”.

With “MGLVTDEVRARAEKYTGDEICREKTKEFLKEVSMPNGLLPLKDIEEVGYDRETGIVWLKQKKSITHKFEAIGKLVSYATEVIAQVEVGKIKKLTGVKAKELLIWVTLNELVLEQPTSSGKINFRTPTGLSRTFPVSAFVVPEVEKPATEKNNGTTEVKEAVAVTDA”, the “soluble on expression in E. coli” value was “not soluble”.

As for “MTTFNYTNILTQAVDELSESQSYKGLFHQHKDGDPLPSAKSLYKIVELARAIIFPGYFGNSTVNSHTINYHIGVNVETLFGLLTEQILAGLCFGQENSKNATDDNEPCRETASLLAARFISKLPELRRILATDVEAAYYGDPAATCFGEIISCYPAIRAISNYRIAHELLILGVPLIPRFITEMAHSETGIDIHPGAQIGHHFTIDHGTGVVIGATSIIGNNVKLYQGVTLGAKSFPLDNNGNPIKGIPRHPILEDDVIVYSNATILGRVTIGKGATVGGNIWVTENVPAGSRIVQRKNKDELEHHHHHH”, the “soluble on expression in E. coli” value is listed as “soluble”.

As for “MSLSNKIFTHSLPMRYADFPTLVDALDYAALSSAGMNFYDRRCQLEDQLEYQTLKARAEAGAKRLLSLNLKKGDRVALIAETSSEFVEAFFACQYAGLVAVPLAIPMGVGQRDSWSAKLQGLLASCQPAAIITGDEWLPLVNAATHDNPELHVLSHAWFKALPEADVALQRPVPNDIAYLQYTSGSTRFPRGVIITHREVMANLRAISHDGIKLRPGDRCVSWLPFYHDMGLVGFLLTPVATQLSVDYLRTQDFAMRPLQWLKLISKNRGTVSVAPPFGYELCQRRVNEKDLAELDLSCWRVAGIGAEPISAEQLHQFAECFRQVNFDNKTFMPCYGLAENALAVSFSDEASGVVVNEVDRDILEYQGKAVAPGAETRAVSTFVNCGKALPEHGIEIRNEAGMPVAERVVGHICISGPSLMSGYFGDQVSQDEIAATGWLDTGDLGYLLDGYLYVTGRIKDLIIIRGRNIWPQDIEYIAEQEPEIHSGDAIAFVTAQEKIILQIQCRISDEERRGQLIHALAARIQSEFGVTAAIDLLPPHSIPRTSSGKPARAEAKKRYQKAYAASLNVQESLAEGHHHHHH”, the “soluble on expression in E. coli” value is listed as “soluble”.
